Legend:
HLA-B*46:01 [1] = experiment: IEDB peptide-MHC binding, purified MHC/competitive/fluorescence; filed as Kd, often an IC50 or EC50 that approximates it; ≥ and ≤ were set here for values at or beyond the usual limits of such assays
HLA-C*12:03 = experiment: IEDB peptide-MHC binding, purified MHC/direct/fluorescence; filed as Kd, often an IC50 or EC50 that approximates it; ≥ and ≤ were set here for values at or beyond the usual limits of such assays
HLA-B*57:01 [2] = experiment: as above; conditions: source organism: Mycobacterium tuberculosis variant bovis
HLA-B*58:01 = experiment: as above
HLA-A*02:01 [3] = experiment: IEDB peptide-MHC binding, purified MHC/competitive/radioactivity; ≥ and ≤ were set here for values at or beyond the usual limits of such assays
HLA-B*15:01 [4] = experiment: IEDB peptide-MHC binding, purified MHC/competitive/radioactivity; filed as Kd, often an IC50 or EC50 that approximates it; ≥ and ≤ were set here for values at or beyond the usual limits of such assays; conditions: source organism: Vaccinia virus WR
HLA-B*15:03 = experiment: as above; conditions: source organism: Vaccinia virus WR
HLA-A*30:01 = experiment: as above; conditions: source organism: Vaccinia virus WR
HLA-B*08:01 [5] = experiment: as above; conditions: source organism: Vaccinia virus WR
HLA-A*32:01 = experiment: as above; conditions: source organism: Vaccinia virus WR
HLA-A*02:01 [6] = experiment: IEDB peptide-MHC binding, purified MHC/competitive/fluorescence; filed as Kd, often an IC50 or EC50 that approximates it; ≥ and ≤ were set here for values at or beyond the usual limits of such assays
HLA-B*39:01 [7] = experiment: as above; conditions: source organism: Zaire ebolavirus
HLA-B*27:03 = experiment: as above; conditions: source organism: Zaire ebolavirus
HLA-B*15:01 [8] = experiment: as above; conditions: source organism: Zaire ebolavirus
HLA-B*57:01 [9] = experiment: as above
HLA-B*18:01 [10] = experiment: as above; conditions: source organism: Zaire ebolavirus
HLA-A*26:01 = experiment: as above; conditions: source organism: Zaire ebolavirus
HLA-B*15:17 = experiment: as above
HLA-B*51:01 = experiment: as above; conditions: source organism: Zaire ebolavirus
HLA-A*03:01 = experiment: IEDB peptide-MHC binding, purified MHC/direct/fluorescence; filed as Kd, often an IC50 or EC50 that approximates it; ≥ and ≤ were set here for values at or beyond the usual limits of such assays; conditions: source organism: Zaire ebolavirus
HLA-A*68:02 = experiment: as above
HLA-A*02:19 = experiment: as above; conditions: source organism: Zaire ebolavirus
HLA-A*24:03 = experiment: as above; conditions: source organism: Zaire ebolavirus
HLA-A*23:01 = experiment: as above; conditions: source organism: Zaire ebolavirus
HLA-A*02:16 = experiment: as above; conditions: source organism: Zaire ebolavirus
HLA-A*02:11 [11] = experiment: as above; conditions: source organism: Zaire ebolavirus
HLA-A*29:02 = experiment: as above; conditions: source organism: Zaire ebolavirus
HLA-A*02:12 = experiment: as above; conditions: source organism: Zaire ebolavirus
HLA-A*02:03 = experiment: as above; conditions: source organism: Zaire ebolavirus
HLA-B*07:02 [12] = experiment: as above
HLA-A*02:01 [13] = experiment: IEDB peptide-MHC binding, purified MHC/competitive/fluorescence; ≥ and ≤ were set here for values at or beyond the usual limits of such assays; conditions: source organism: Zaire ebolavirus
HLA-B*08:01 [14] = experiment: as above; conditions: source organism: Zaire ebolavirus
HLA-B*07:02 [15] = experiment: as above; conditions: source organism: Zaire ebolavirus
HLA-A*02:11 [16] = experiment: IEDB peptide-MHC binding, purified MHC/competitive/fluorescence; filed as Kd, often an IC50 or EC50 that approximates it; ≥ and ≤ were set here for values at or beyond the usual limits of such assays; conditions: source organism: Canarypox virus
HLA-C*15:02 = experiment: IEDB peptide-MHC binding, purified MHC/direct/fluorescence; filed as Kd, often an IC50 or EC50 that approximates it; ≥ and ≤ were set here for values at or beyond the usual limits of such assays; conditions: source organism: Canarypox virus
HLA-C*03:03 = experiment: as above; conditions: source organism: Canarypox virus
HLA-A*01:01 = experiment: IEDB peptide-MHC binding, purified MHC/competitive/fluorescence; filed as Kd, often an IC50 or EC50 that approximates it; ≥ and ≤ were set here for values at or beyond the usual limits of such assays; conditions: source organism: Variola virus
HLA-A*26:02 = experiment: as above; conditions: source organism: Variola virus
HLA-B*39:01 [17] = experiment: IEDB peptide-MHC binding, purified MHC/direct/fluorescence; filed as Kd, often an IC50 or EC50 that approximates it; ≥ and ≤ were set here for values at or beyond the usual limits of such assays; conditions: source organism: Camelpox virus CMS
HLA-B*15:01 [18] = experiment: as above; conditions: source organism: Camelpox virus CMS
HLA-A*02:01 [19] = experiment: as above; conditions: source organism: Camelpox virus CMS
HLA-B*48:01 = experiment: as above; conditions: source organism: Camelpox virus CMS
HLA-B*18:01 [20] = experiment: as above; conditions: source organism: Camelpox virus CMS
HLA-B*46:01 [21] = experiment: as above; conditions: source organism: Camelpox virus CMS
HLA-A*69:01 = experiment: as above; conditions: source organism: Camelpox virus CMS
HLA-B*27:05 = experiment: as above; conditions: source organism: Camelpox virus CMS
HLA-B*40:01 = experiment: as above; conditions: source organism: Camelpox virus CMS
[22] = source organism: Mycobacterium tuberculosis variant bovis BCG str. Pasteur 1173P2
[23] = source organism: Zaire ebolavirus
[24] = source organism: Canarypox virus
[25] = source organism: Camelpox virus CMS

## VAFYCAGRF
HLA-B*46:01 [1]; [22]
  Kd: 0.748 µM
HLA-C*12:03; [22]
  Kd: 0.058 µM
HLA-B*57:01 [2]
  Kd: 0.451 µM
HLA-B*58:01; source organism: Mycobacterium tuberculosis variant bovis
  Kd: 0.112 µM

## CQWGRLWQL
HLA-A*02:01 [3]; source organism: Homo sapiens
  IC50: 1.43 µM

## FIFLKKNEL
HLA-B*15:01 [4]
  Kd: 4.77 µM
HLA-B*15:03
  Kd: 18.5 µM
HLA-A*30:01
  Kd: 0.0439 µM
HLA-B*08:01 [5]
  Kd: 0.0966 µM
HLA-A*32:01
  Kd: 12.8 µM
HLA-A*02:01 [6]; source organism: Variola virus
  Kd: 3.02 µM
HLA-C*12:03; source organism: Variola virus
  Kd: 1.45 µM

## HAATNFREI
HLA-C*12:03; source organism: Angomonas deanei
  Kd: 0.025 µM

## YLDSGIHSGA
HLA-A*02:01 [3]; source organism: Homo sapiens
  IC50: 0.0835 µM

## HPLARTAKV
HLA-B*39:01 [7]
  Kd: ≥ 20 µM
HLA-B*27:03
  Kd: ≥ 20 µM
HLA-B*15:01 [8]
  Kd: ≥ 20 µM
HLA-A*02:01 [6]; [23]
  Kd: ≥ 20 µM
HLA-B*57:01 [9]; [23]
  Kd: ≥ 20 µM
HLA-B*18:01 [10]
  Kd: ≥ 20 µM
HLA-B*46:01 [1]; [23]
  Kd: ≥ 20 µM
HLA-A*26:01
  Kd: ≥ 20 µM
HLA-B*15:17; [23]
  Kd: ≥ 20 µM
HLA-B*51:01
  Kd: 0.201 µM
HLA-A*03:01
  Kd: ≥ 20 µM
HLA-A*68:02; [23]
  Kd: ≥ 20 µM
HLA-A*02:19
  Kd: ≥ 20 µM
HLA-A*24:03
  Kd: ≥ 20 µM
HLA-A*23:01
  Kd: ≥ 20 µM
HLA-A*02:16
  Kd: ≥ 20 µM
HLA-A*02:11 [11]
  Kd: ≥ 20 µM
HLA-A*29:02
  Kd: ≥ 20 µM
HLA-A*02:12
  Kd: ≥ 20 µM
HLA-A*02:03
  Kd: ≥ 20 µM
HLA-B*07:02 [12]; [23]
  Kd: 0.0459 µM
HLA-A*02:01 [13]
  IC50: ≥ 113 µM
HLA-B*08:01 [14]
  IC50: 54.5 µM
HLA-B*07:02 [15]
  IC50: 3.11 µM

## YIIPCILIL
HLA-A*02:01 [6]; [24]
  Kd: 0.0594 µM
HLA-A*02:11 [16]
  Kd: 0.24 µM
HLA-C*12:03; [24]
  Kd: 0.327 µM
HLA-C*15:02
  Kd: ≥ 20 µM
HLA-C*03:03
  Kd: 0.229 µM

## LLDVPTAAV
HLA-A*02:01 [3]; source organism: Homo sapiens
  IC50: 0.01 µM

## SSDDIPPRW
HLA-A*01:01
  Kd: ≥ 20 µM
HLA-B*57:01 [9]; source organism: Variola virus
  Kd: 1.48 µM
HLA-A*26:02
  Kd: ≥ 20 µM
HLA-B*15:17; source organism: Variola virus
  Kd: ≥ 20 µM
HLA-B*39:01 [17]
  Kd: ≥ 20 µM
HLA-B*15:01 [18]
  Kd: ≥ 20 µM
HLA-A*68:02; [25]
  Kd: ≥ 20 µM
HLA-A*02:01 [19]
  Kd: ≥ 20 µM
HLA-B*48:01
  Kd: ≥ 20 µM
HLA-B*18:01 [20]
  Kd: ≥ 20 µM
HLA-B*46:01 [21]
  Kd: ≥ 20 µM
HLA-A*69:01
  Kd: ≥ 20 µM
HLA-B*27:05
  Kd: ≥ 20 µM
HLA-B*07:02 [12]; [25]
  Kd: ≥ 20 µM
HLA-B*40:01
  Kd: ≥ 20 µM
HLA-B*58:01; [25]
  Kd: 0.0279 µM

## NLIYRNLHL
HLA-A*02:01 [3]; source organism: Rhinovirus A
  IC50: 0.2 µM
